From IntAct's records for PubMed 31515488

B1: Protein PALS1 (Homo sapiens), Q8N3R9 (parent)
chain: MTTSHMNGHVTEESDSEVKNVDLASPEEHQKHREMAVDCPGDLGTRMMPIRRSAQLERIRQQQEDMRRRREEEGKKQELDLNSSMRLKKLAQIPPKTGIDNPMFDTEEGIVLESPHYAVKILEIEDLFSSLKHIQHTLVDSQSQEDISLLLQLVQNKDFQNAFKIHNAITVHMNKASPPFPLISNAQDLAQEVQTVLKPVHHKEGQELTALLNTPHIQALLLAHDKVAEQEMQLEPITDERVYESIGQYGGETVKIVRIEKARDIPLGATVRNEMDSVIISRIVKGGAAEKSGLLHEGDEVLEINGIEIRGKDVNEVFDLLSDMHGTLTFVLIPSQQIKPPPAKETVIHVKAHFDYDPSDDPYVPCRELGLSFQKGDILHVISQEDPNWWQAYREGDEDNQPLAGLVPGKSFQQQREAMKQTIEEDKEPEKSGKLWCAKKNKKKRKKVLYNANKNDDYDNEEILTYEEMSLYHQPANRKRPIILIGPQNCGQNELRQRLMNKEKDRFASAVPHTTRSRRDQEVAGRDYHFVSRQAFEADIAAGKFIEHGEFEKNLYGTSIDSVRQVINSGKICLLSLRTQSLKTLRNSDLKPYIIFIAPPSQERLRALLAKEGKNPKPEELREIIEKTREMEQNNGHYFDTAIVNSDLDKAYQELLRLINKLDTEPQWVPSTWLR
partner: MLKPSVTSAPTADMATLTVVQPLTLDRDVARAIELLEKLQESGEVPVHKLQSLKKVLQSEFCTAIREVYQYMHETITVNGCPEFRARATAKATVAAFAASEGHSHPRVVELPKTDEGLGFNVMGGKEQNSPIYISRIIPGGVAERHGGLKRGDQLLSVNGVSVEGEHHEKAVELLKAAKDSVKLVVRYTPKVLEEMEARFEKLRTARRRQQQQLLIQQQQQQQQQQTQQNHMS
B2: G1/S-specific cyclin-D3 (Homo sapiens), P30281 (parent)
chain: MELLCCEGTRHAPRAGPDPRLLGDQRVLQSLLRLEERYVPRASYFQCVQREIKPHMRKMLAYWMLEVCEEQRCEEEVFPLAMNYLDRYLSCVPTRKAQLQLLGAVCMLLASKLRETTPLTIEKLCIYTDHAVSPRQLRDWEVLVLGKLKWDLAAVIAHDFLAFILHRLSLPRDRQALVKKHAQTFLALCATDYTFAMYPPSMIATGSIGAAVQGLGACSMSGDELTELLAGITGTEVDCLRACQEQIEAALRESLREASQTSSSPAPKAPRGSSSQGPSQTSTPTDVTAIHL
partner: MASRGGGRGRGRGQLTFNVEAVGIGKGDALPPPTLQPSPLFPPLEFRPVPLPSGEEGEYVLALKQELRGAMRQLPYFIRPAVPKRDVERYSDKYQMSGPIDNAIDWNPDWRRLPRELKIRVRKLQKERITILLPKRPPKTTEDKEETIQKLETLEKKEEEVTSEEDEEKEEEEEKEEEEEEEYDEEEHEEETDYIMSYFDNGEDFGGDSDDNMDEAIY
B3: Serine/threonine-protein phosphatase 6 regulatory ankyrin repeat subunit B (Homo sapiens), Q8N8A2 (parent)
chain: MAVLKLTDQPPLVQAIFSGDPEEIRMLIHKTEDVNTLDSEKRTPLHVAAFLGDAEIIELLILSGARVNAKDNMWLTPLHRAVASRSEEAVQVLIKHSADVNARDKNWQTPLHVAAANKAVKCAEVIIPLLSSVNVSDRGGRTALHHAALNGHVEMVNLLLAKGANINAFDKKDRRALHWAAYMGHLDVVALLINHGAEVTCKDKKGYTPLHAAASNGQINVVKHLLNLGVEIDEINVYGNTALHIACYNGQDAVVNELIDYGANVNQPNNNGFTPLHFAAASTHGALCLELLVNNGADVNIQSKDGKSPLHMTAVHGRFTRSQTLIQNGGEIDCVDKDGNTPLHVAARYGHELLINTLITSGADTAKCGIHSMFPLHLAALNAHSDCCRKLLSSGFEIDTPDKFGRTCLHAAAAGGNVECIKLLQSSGADFHKKDKCGRTPLHYAAANCHFHCIETLVTTGANVNETDDWGRTALHYAAASDMDRNKTILGNAHDNSEELERARELKEKEATLCLEFLLQNDANPSIRDKEGYNSIHYAAAYGHRQCLELLLERTNSGFEESDSGATKSPLHLAAYNGHHQALEVLLQSLVDLDIRDEKGRTALDLAAFKGHTECVEALINQGASIFVKDNVTKRTPLHASVINGHTLCLRLLLEIADNPEAVDVKDAKGQTPLMLAVAYGHIDAVSLLLEKEANVDTVDILGCTALHRGIMTGHEECVQMLLEQEVSILCKDSRGRTPLHYAAARGHATWLSELLQMALSEEDCCFKDNQGYTPLHWACYNGNENCIEVLLEQKCFRKFIGNPFTPLHCAIINDHGNCASLLLGAIDSSIVSCRDDKGRTPLHAAAFADHVECLQLLLRHSAPVNAVDNSGKTALMMAAENGQAGAVDILVNSAQADLTVKDKDLNTPLHLACSKGHEKCALLILDKIQDESLINEKNNALQTPLHVAARNGLKVVVEELLAKGACVLAVDENASRSNGPRSTPGTAVQKEE
B4: Alpha-taxilin (Homo sapiens), P40222 (parent)
chain: MKNQDKKNGAAKQSNPKSSPGQPEAGPEGAQERPSQAAPAVEAEGPGSSQAPRKPEGAQARTAQSGALRDVSEELSRQLEDILSTYCVDNNQGGPGEDGAQGEPAEPEDAEKSRTYVARNGEPEPTPVVNGEKEPSKGDPNTEEIRQSDEVGDRDHRRPQEKKKAKGLGKEITLLMQTLNTLSTPEEKLAALCKKYAELLEEHRNSQKQMKLLQKKQSQLVQEKDHLRGEHSKAVLARSKLESLCRELQRHNRSLKEEGVQRAREEEEKRKEVTSHFQVTLNDIQLQMEQHNERNSKLRQENMELAERLKKLIEQYELREEHIDKVFKHKDLQQQLVDAKLQQAQEMLKEAEERHQREKDFLLKEAVESQRMCELMKQQETHLKQQLALYTEKFEEFQNTLSKSSEVFTTFKQEMEKMTKKIKKLEKETTMYRSRWESSNKALLEMAEEKTVRDKELEGLQVKIQRLEKLCRALQTERNDLNKRVQDLSAGGQGSLTDSGPERRPEGPGAQAPSSPRVTEAPCYPGAPSTEASGQTGPQEPTSARA
partner: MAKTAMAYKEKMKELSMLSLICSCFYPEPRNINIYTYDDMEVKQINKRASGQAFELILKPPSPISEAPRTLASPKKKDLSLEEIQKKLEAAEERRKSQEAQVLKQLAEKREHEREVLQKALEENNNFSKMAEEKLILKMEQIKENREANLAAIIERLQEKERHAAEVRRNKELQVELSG
B5: DNA endonuclease RBBP8 (Homo sapiens), Q99708 (parent)
chain: MNISGSSCGSPNSADTSSDFKDLWTKLKECHDREVQGLQVKVTKLKQERILDAQRLEEFFTKNQQLREQQKVLHETIKVLEDRLRAGLCDRCAVTEEHMRKKQQEFENIRQQNLKLITELMNERNTLQEENKKLSEQLQQKIENDQQHQAAELECEEDVIPDSPITAFSFSGVNRLRRKENPHVRYIEQTHTKLEHSVCANEMRKVSKSSTHPQHNPNENEILVADTYDQSQSPMAKAHGTSSYTPDKSSFNLATVVAETLGLGVQEESETQGPMSPLGDELYHCLEGNHKKQPFEESTRNTEDSLRFSDSTSKTPPQEELPTRVSSPVFGATSSIKSGLDLNTSLSPSLLQPGKKKHLKTLPFSNTCISRLEKTRSKSEDSALFTHHSLGSEVNKIIIQSSNKQILINKNISESLGEQNRTEYGKDSNTDKHLEPLKSLGGRTSKRKKTEEESEHEVSCPQASFDKENAFPFPMDNQFSMNGDCVMDKPLDLSDRFSAIQRQEKSQGSETSKNKFRQVTLYEALKTIPKGFSSSRKASDGNCTLPKDSPGEPCSQECIILQPLNKCSPDNKPSLQIKEENAVFKIPLRPRESLETENVLDDIKSAGSHEPIKIQTRSDHGGCELASVLQLNPCRTGKIKSLQNNQDVSFENIQWSIDPGADLSQYKMDVTVIDTKDGSQSKLGGETVDMDCTLVSETVLLKMKKQEQKGEKSSNEERKMNDSLEDMFDRTTHEEYESCLADSFSQAADEEEELSTATKKLHTHGDKQDKVKQKAFVEPYFKGDERETSLQNFPHIEVVRKKEERRKLLGHTCKECEIYYADMPAEEREKKLASCSRHRFRYIPPNTPENFWEVGFPSTQTCMERGYIKEDLDPCPRPKRRQPYNAIFSPKGKEQKT
B6: Protein FAM200C (Homo sapiens), Q8IZ13 (parent)
chain: MSKKRKWDDDYVRYWFTCTTEVDGTQRPQCVLCNSVFSNADLRPSKLSDHFNRQHGGVAGHDLNSLKHMPAPSDQSETLKAFGVASHEDTLLQASYQFAYLCAKEKNPHTVAEKLVKPCALEIAQIVLGPDAQKKLQQVPLSDDVIHSRIDEMSQDILQQVLEDIKASPLKVGIQLAETTDMDDCSQLMAFVRYIKEREIVEEFLFCEPLQLSMKGIDVFNLFRDFFLKHKIALDVCGSVCTDGASSMLGENSEFVAYVKKEIPHIVVTHCLLNPHALVIKTLPTKLRDALFTVVRVINFIKGRAPNHRLFQAFFEEIGIEYSVLLFHTEMRWLSRGQILTHIFEMYEEINQFLHHKSSNLVDGFENKEFKIHLAYLADLFKHLNELSASMQRTGMNTVSAREKLSAFVRKFPFWQKRIEKRNFTNFPFLEEIIVSDNEGIFIAAEITLHLQQLSNFFHGYFSIGDLNEASKWILDPFLFNIDFVDDSYLMKNDLAELRASGQILMEFETMKLEDFWCAQFTAFPNLAKTALEILMPFATTYLCELGFSSLLHFKTKSRSCFNLSDDIRVAISKKVPRFSDIIEQKLQLQQKSL
B7: Probable splicing factor YJU2B (Homo sapiens), P13994 (parent)
chain: MGERKGVNKYYPPDFNPEKHGSLNRYHNSHPLRERARKLSQGILIIRFEMPYNIWCDGCKNHIGMGVRYNAEKKKVGNYYTTPIYRFRMKCHLCVNYIEMQTDPANCDYVIVSGAQRKEERWDMADNEQVLTTEHEKKQKLETDAMFRLEHGEADRSTLKKALPTLSHIQEAQSAWKDDFALNSMLRRRFREKKKAIQEEEERDQALQAKASLTIPLVPETEDDRKLAALLKFHTLDSYEDKQKLKRTEIISRSWFPSAPGSASSSKVSGVLKKLAQSRRTALATSPITVGDLGIVRRRSRDVPESPQHAADTPKSGEPRVPEEAAQDRPMSPGDCPPETTETPKCSSPRGQEGSRQDKPLSPAGSSQEAADTPDTRHPCSLGSSLVADYSDSESE
partner: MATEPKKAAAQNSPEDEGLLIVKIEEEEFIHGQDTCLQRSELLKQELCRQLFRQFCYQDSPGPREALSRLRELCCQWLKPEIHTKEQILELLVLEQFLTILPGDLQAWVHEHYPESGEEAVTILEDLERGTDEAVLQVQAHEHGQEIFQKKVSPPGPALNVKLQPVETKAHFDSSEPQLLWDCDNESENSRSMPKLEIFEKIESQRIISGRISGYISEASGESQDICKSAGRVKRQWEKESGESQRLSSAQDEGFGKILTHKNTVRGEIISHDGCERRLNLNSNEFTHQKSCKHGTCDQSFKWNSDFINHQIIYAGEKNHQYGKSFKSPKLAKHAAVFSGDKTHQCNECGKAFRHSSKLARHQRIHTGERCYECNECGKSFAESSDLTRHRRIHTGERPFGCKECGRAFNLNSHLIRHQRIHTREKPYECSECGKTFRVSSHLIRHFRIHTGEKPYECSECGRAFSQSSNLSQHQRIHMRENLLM
B8: Spermatogenic leucine zipper protein 1 (Homo sapiens), Q9BXG8 (parent)
chain: MASSAKSAEMPTISKTVNPTPDPHQEYLDPRITIALFEIGSHSPSSWGSLPFLKNSSHQVTEQQTAQKFNNLLKEIKDILKNMAGFEEKITEAKELFEETNITEDVSAHKENIRGLDKINEMLSTNLPVSLAPEKEDNEKKQEMILETNITEDVSAHKENIRGLDKINEMLSTNLPVSLAPEKEDNEKKQQMIMENQNSENTAQVFARDLVNRLEEKKVLNETQQSQEKAKNRLNVQEETMKIRNNMEQLLQEAEHWSKQHTELSKLIKSYQKSQKDISETLGNNGVGFQTQPNNEVSAKHELEEQVKKLSHDTYSLQLMAALLENECQILQQRVEILKELHHQKQGTLQEKPIQINYKQDKKNQKPSEAKKVEMYKQNKQAMKGTFWKKDRSCRSLDVCLNKKACNTQFNIHVARKALRGKMRSASSLR
partner: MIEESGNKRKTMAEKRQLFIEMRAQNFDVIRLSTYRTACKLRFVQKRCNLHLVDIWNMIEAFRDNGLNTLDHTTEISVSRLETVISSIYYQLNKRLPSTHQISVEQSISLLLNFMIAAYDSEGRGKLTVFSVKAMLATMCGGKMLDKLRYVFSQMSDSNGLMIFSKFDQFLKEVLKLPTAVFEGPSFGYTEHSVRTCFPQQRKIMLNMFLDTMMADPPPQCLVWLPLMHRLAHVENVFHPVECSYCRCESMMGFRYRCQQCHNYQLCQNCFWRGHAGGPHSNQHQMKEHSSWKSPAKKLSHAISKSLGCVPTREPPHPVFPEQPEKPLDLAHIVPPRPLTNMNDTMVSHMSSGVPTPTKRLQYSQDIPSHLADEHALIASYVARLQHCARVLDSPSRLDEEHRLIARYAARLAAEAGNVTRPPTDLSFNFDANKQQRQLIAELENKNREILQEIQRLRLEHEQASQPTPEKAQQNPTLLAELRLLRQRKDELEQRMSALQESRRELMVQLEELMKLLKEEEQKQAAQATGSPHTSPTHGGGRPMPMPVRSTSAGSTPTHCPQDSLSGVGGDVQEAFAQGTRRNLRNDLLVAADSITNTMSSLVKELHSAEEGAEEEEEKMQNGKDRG

Variants of: B1
Conditions: with lin7a_human LIN7A

effect of a mutation on the interaction | Variant
with no effect | S141Y

Variants of: B2
Conditions: with rpc7l_human POLR3GL

effect of a mutation on the interaction | Variant
with no effect | E253D

Variants of: B3
Conditions: with wwp2_human WWP2, O00308
wwp2_human WWP2, O00308, sequence (O00308 whole entry): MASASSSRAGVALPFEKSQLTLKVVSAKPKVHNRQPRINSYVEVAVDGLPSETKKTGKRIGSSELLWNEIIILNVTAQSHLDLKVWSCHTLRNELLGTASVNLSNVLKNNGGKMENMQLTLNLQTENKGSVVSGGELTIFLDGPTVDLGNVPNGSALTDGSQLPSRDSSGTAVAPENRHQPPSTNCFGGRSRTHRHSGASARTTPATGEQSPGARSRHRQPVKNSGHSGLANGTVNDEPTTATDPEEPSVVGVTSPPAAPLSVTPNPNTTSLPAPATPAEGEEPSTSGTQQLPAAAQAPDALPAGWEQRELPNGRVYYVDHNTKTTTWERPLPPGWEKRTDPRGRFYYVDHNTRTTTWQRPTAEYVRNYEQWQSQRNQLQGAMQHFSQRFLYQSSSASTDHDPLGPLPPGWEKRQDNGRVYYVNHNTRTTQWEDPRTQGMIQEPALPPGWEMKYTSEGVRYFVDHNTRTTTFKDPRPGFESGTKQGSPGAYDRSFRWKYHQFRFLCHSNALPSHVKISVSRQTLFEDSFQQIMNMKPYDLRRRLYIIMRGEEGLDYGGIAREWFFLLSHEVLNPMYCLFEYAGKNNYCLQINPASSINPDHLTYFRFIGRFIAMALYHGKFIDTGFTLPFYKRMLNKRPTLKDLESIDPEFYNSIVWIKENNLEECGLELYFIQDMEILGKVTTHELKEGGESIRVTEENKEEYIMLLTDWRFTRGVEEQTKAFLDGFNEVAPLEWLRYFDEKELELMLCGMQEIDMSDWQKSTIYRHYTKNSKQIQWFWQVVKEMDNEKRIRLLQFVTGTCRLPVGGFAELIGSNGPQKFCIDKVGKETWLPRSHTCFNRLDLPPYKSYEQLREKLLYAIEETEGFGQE

effect of a mutation on the interaction | Variant
disrupting interaction strength | R80W

Variants of: B4
Conditions: with stmn2_human STMN2, Q93045

effect of a mutation on the interaction | Variant
with no effect | S514R
with no effect | P541S

Variants of: B5
Conditions: with lims1_human LIMS1, P48059
lims1_human LIMS1, P48059, sequence (P48059 whole entry): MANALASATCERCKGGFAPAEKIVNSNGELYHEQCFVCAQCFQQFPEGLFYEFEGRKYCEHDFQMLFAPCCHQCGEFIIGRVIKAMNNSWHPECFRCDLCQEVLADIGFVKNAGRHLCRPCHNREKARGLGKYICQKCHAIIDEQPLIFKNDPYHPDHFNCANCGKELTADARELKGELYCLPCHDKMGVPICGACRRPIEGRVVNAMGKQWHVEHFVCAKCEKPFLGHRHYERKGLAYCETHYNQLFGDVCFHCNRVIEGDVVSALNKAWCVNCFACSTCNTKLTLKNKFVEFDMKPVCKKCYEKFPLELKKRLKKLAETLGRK

effect of a mutation on the interaction | Variant
with no effect | E320K

Variants of: B6
Conditions: with mt21a_human METTL21A

effect of a mutation on the interaction | Variant
disrupting interaction strength | M248K

Variants of: B7
Conditions: with zn165_human ZNF165, P49910

effect of a mutation on the interaction | Variant
with no effect | S22C

Variants of: B8
Conditions: with dtnb_human DTNB

effect of a mutation on the interaction | Variant
with no effect | H301P
with no effect | E9K
